{"source": "paper PMC8505757", "about": "(Journal of Molecular Biology, 2021)", "binders": {"B1": {"name": "Ataxin-1 pS776 peptide (AcNH-RKRRWpSAPESR-NH2) (peptide)", "peptide": "Ac-RKRRW[pS]APESR-NH2", "SMILES": "CC(=O)N[C@@H](CCCNC(=N)N)C(=O)N[C@@H](CCCCN)C(=O)N[C@@H](CCCNC(=N)N)C(=O)N[C@@H](CCCNC(=N)N)C(=O)N[C@@H](Cc1c[nH]c2ccccc12)C(=O)N[C@@H](COP(=O)(O)O)C(=O)N[C@@H](C)C(=O)N1CCC[C@H]1C(=O)N[C@@H](CCC(=O)O)C(=O)N[C@@H](CO)C(=O)N[C@@H](CCCNC(=N)N)C(N)=O"}}, "target": "T1, 14-3-3σΔC (human, UniProt P31947 1-231)", "T1 sequence (looked up)": "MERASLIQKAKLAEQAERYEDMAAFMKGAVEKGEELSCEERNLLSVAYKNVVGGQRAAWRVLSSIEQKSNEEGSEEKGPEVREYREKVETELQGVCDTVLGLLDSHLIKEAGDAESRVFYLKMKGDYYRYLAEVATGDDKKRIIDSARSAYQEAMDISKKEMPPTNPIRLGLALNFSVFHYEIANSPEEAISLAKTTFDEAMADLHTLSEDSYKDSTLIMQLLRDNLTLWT", "assay": "crystal structure", "note": "Non-standard residues stand in square brackets, D forms with d. pS = N[C@@H](COP(=O)(O)O)C(=O)O"}
{"binder": "B1", "values": [{"measurement": "binding result", "result": "binds"}]}
